Assay [1] addresses pineapple-derived jacalin-related lectin AcmJRL (pineapple (Ananas comosus)). Briefly: dynamic light scattering.
Assay [2] addresses human angiotensin-converting-enzyme-2 (ACE2) receptor, recombinant (human) (UniProt Q9BYF1). Put plainly: SPR.
Assay [3] deals with SARS-CoV-2 spike receptor-binding domain (RBD) (SARS-CoV-2) (UniProt P0DTC2). Put plainly: SPR.

The values below come from article doi:10.1101/2022.05.27.493400.

pKd: −log10 of the molar value. Values joined by “and” are separate entries in the source; they are usually repeats but may differ in a detail not shown here. Identical values can stand only once.

Consider “pineapple-derived jacalin-related lectin AcmJRL (natural protein)”, for which, in assay [1], the stoichiometry N was determined as 2. Moreover, the pKd in assay [2] is 4.66; in assay [3] it was 4.89 and 4.46. Further, the kon in assay [2] was determined as 590 M⁻¹ s⁻¹; in assay [3] it was 1490 M⁻¹ s⁻¹.
